Measured values reported in PMC10480042 (ACS applied materials & interfaces, 2023).

Molecular target: Aβ42
Test: SPR

HGVVFLHVTYV [Spike1058 (1058HGVVFLHVTYV1068), fragment of the SARS-CoV-2 spike protein]
Kd: 82.6 nM
